These results are taken from patent US20250092135A1 (NANJING LEADS BIOLABS, published 2025).

For test [1], the target named is T1, human CD3 protein endogenously expressed on Jurkat cells (human, UniProt P07766 23-207).
T1 construct: whole, on cells; The whole CD3 complex is on the cells; also called CD3 on Jurkat cells; CD3 on Jurkat/NFAT-luc cells
Kind of test: flow cytometry, Jurkat cells (endogenous CD3), PE anti-human IgG Fc secondary, MFI; EC50 table under the plot, unit from the axis Conc.(nM); curve flat at about 1250 up to about 33 nM, about 1900-2200 at the two top concentrations. As for the experimental part: (3) Whether the anti-CD3/anti-MUC16 bispecific antibodies in the present invention could bind to the CD3 protein endogenously expressed on Jurkat cells (Cell Bank of Type Culture Collection Committee of the Chinese Academy of Sciences, Cat #SCSP-513) was determined by cell binding experiments. Detection was performed using the flow cytometry described above, with the following differences: the dilution gradient for the test bispecific antibody was: a maximum concentration of 200 nM, starting from a second concentration of 100 nM, 5-fold dilution, 10 points; the bispecific antibodies were added to Jurkat cells, and the cells were incubated at 4° C. for 30 min. The cells were washed twice with PBS, and then fluorescent secondary antibody R-PE-conjugated AffiniPure Goat Anti-Human IgG, Fcγ Fragment Specific was added. The cells were incubated at 4° C. for 30 min. The cells were washed twice with PBS and then resuspended, and finally, fluorescence signals were detected using a BD Accuri C5 (BD Bioscience) flow cytometer.
For orientation: In flow cytometry, cells or beads pass a laser one at a time.

Another test has as its target T2, Rhesus monkey MUC16-His (rhesus monkey).
T2 construct: The entry includes the C-terminal 6xHis tag; also called membrane-proximal end of the extracellular region of the rhesus monkey MUC16 protein
T2 chain: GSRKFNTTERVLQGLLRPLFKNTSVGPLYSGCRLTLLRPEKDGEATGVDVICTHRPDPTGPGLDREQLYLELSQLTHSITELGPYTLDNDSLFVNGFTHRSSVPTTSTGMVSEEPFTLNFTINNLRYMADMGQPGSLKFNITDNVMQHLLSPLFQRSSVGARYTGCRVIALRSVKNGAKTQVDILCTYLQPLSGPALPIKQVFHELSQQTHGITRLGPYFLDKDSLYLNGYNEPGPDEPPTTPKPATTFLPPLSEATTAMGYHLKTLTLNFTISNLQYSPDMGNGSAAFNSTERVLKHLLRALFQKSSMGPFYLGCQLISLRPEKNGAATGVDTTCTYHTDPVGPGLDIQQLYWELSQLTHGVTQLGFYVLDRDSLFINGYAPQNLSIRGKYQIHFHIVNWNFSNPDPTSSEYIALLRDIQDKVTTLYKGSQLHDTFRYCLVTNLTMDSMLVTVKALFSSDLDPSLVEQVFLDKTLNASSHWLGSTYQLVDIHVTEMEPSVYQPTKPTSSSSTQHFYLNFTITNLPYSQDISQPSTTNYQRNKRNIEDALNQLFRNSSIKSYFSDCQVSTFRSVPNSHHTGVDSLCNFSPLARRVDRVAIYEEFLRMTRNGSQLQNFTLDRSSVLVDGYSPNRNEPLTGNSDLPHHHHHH
Put plainly: BLI (ForteBio Octet RED96), antibody on AHC sensor, 1:1 model.

Test [2] concerns the target T3, human MUC16 protein (ECT_TM huMuc16) on 293T cells (human).
T3 chain: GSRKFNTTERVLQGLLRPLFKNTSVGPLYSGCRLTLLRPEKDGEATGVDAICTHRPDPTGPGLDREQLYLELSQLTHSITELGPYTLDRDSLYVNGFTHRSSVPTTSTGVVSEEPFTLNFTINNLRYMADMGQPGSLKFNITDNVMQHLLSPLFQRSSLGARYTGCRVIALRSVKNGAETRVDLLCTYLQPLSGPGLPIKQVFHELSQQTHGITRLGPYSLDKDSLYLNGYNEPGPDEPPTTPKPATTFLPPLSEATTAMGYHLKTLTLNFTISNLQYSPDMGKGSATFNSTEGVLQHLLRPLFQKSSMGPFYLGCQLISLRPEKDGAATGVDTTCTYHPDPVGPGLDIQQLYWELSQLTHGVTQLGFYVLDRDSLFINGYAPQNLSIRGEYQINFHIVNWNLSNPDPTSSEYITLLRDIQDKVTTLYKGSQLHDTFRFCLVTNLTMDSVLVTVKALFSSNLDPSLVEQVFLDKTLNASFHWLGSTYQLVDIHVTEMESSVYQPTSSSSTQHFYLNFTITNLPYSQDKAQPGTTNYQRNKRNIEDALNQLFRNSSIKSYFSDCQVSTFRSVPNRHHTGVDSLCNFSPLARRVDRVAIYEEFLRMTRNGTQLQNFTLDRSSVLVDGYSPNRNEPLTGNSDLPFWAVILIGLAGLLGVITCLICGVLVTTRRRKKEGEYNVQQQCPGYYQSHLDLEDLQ
Kind of test: flow cytometry, 293T/hMUC16 cells, PE anti-human IgG Fc secondary, MFI; EC50 table under the plot, unit from the axis Conc.(nM). As to the method:
The serially diluted anti-human MUC16 antibodies (at an initial concentration of 200 nM, 4-fold dilution, 8 points in total) obtained in the present application were added to the cells, and the cells were incubated at 4° C. for 30 min. The cells were washed twice with PBS, and then fluorescent secondary antibody R-PE-conjugated AffiniPure Goat Anti-Human IgG, Fcγ Fragment Specific (Jackson ImmunoResearch, Cat #109-116-098) was added. The cells were incubated at 4° C. for 30 min. The cells were washed twice with PBS and then resuspended, and finally, fluorescence signals were detected using a BD Accuri C5 (BD Bioscience) flow cytometer.

T1 sequence (P07766 23-207): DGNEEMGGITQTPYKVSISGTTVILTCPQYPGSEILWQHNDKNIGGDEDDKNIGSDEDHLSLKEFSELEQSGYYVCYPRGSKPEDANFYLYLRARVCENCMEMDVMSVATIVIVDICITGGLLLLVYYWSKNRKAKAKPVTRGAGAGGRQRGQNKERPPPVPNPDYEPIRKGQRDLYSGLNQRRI

B1: anti-CD3/MUC16 bispecific antibody MCH7-23L2-MCH7 (bispecific antibody, human IgG1, kappa, L234A L235A)
heavy 1: QVQLVQSGAEVKKPGASVKVSCKASGYTFTDYNIHWVRQAPGQGLEWMGYIYPYNGVSDYNQNFKSRVTMTTDTSTSTAYMELRSLRSDDTAVYYCARWDFGSGYYFDYWGQGTLVTVSSASTKGPSVFPLAPSSKSTSGGTAALGCLVKDYFPEPVTVSWNSGALTSGVHTFPAVLQSSGLYSLSSVVTVPSSSLGTQTYICNVNHKPSNTKVDKKVEPKSCEVQLVESGGGLVQPGGSLKLSCAASGFTFSTYAMNWVRQAPGKGLEWVGRIRSKYNNYATYYADSVKDRFTISRDDSKNTLYLQMNSLKTEDTAVYYCTRHGNFGNSYVSWFAYWGQGTTVTVSSGGGGSGGGGSGGGGSQAVVTQEPSLTVSPGGTVTLTCRSSTGAVTTSNYANWVQQKPGQAPRGLIGGTNKRAPGVPARFSGSLLGGKAALTLSGAQPEDEAEYFCALWYSNLWVFGGGTKLTVLGEPKSSDKTHTCPPCPAPEAAGGPSVFLFPPKPKDTLMISRTPEVTCVVVAVSHEDPEVKFNWYVDGVEVHNAKTKPREEQYNSTYRVVSVLTVLHQDWLNGKEYKCKVSNKALAAPIEKTISKAKGQPREPQVCTLPPSRDELTKNQVSLSCAVKGFYPSDIAVEWESNGQPENNYKTTPPVLDSDGSFFLVSKLTVDKSRWQQGNVFSCSVMHEALHNHYTQKSLSLSPGK
heavy 2: not shown
light: EIVLTQSPATLSLSPGERATLSCRASSSVIYMSWYQQKPGQAPRLLIYGTSTLASGIPARFSGSGSGTDFTLTISSLEPEDFAVYYCQQWSSNPFTFGQGTKLEIKRTVAAPSVFIFPPSDEQLKSGTASVVCLLNNFYPREAKVQWKVDNALQSGNSQESVTEQDSKDSTYSLSSTLTLSKADYEKHKVYACEVTHQGLSSPVTKSFNRGEC
notes: MCH7-23L2ScFv-Hole (VH-CH1-scFv-Fc) + MCH7-KIH-Knob + two light chains MCL4 LC
The term EC50 denotes the concentration at which the effect is half-maximal. Regarding B1, the EC50 in test [1] is approximately 39.3 nM.

B2: humanized anti-MUC16 antibody Hu-L4H7 (antibody, human IgG1, kappa, L234A L235A, V domains shown)
VH: QVQLVQSGAEVKKPGASVKVSCKASGYTFTDYNIHWVRQAPGQGLEWMGYIYPYNGVSDYNQNFKSRVTMTTDTSTSTAYMELRSLRSDDTAVYYCARWDFGSGYYFDYWGQGTLVTVSS
VL: EIVLTQSPATLSLSPGERATLSCRASSSVIYMSWYQQKPGQAPRLLIYGTSTLASGIPARFSGSGSGTDFTLTISSLEPEDFAVYYCQQWSSNPFTFGQGTKLEIKR
notes: human IgG1 with L234A, L235A, D265A, P329A and kappa; Biotinylated in the CA125 ELISA; also called humanized MUC-16 antibody
By Kd is commonly meant a measure of binding affinity in units of concentration. A word on the koff: it is the first-order rate constant of dissociation. In general, kon refers to the second-order rate constant of association. Consider B2, for which, in the test with Rhesus monkey MUC16-His, the Kd was determined as 1.04 nM, the koff was 0.000263 s⁻¹ and the kon amounted to 254000 M⁻¹ s⁻¹.

B3: anti-MUC16 antibody 776.1(C33S) (antibody, human IgG1, kappa, L234A L235A, V domains shown)
VH: EVQLQQSGPELVKPGASVKISCKASGYTFTDYNIHWVKQSHGKILEWIGYIYPYNGVSDYNQNFKSKATLIVDNSSNTAYMELRSLTSEDSAVYYCARWDFGSGYYFDYWGQGTTLTVSS
VL: QIVLSQSPAILFASPGETVTMTCRASSSVIYMSWNQQKPGSSPKPWIYGTSTLASGVPTRFSGSGSGTSYSLTISRVEAEDAATYYCQQWSSNPFTFGSGTKLEIKR
B3: a half-maximal response in test [2] (EC50) required 12.9 nM.
